The values below come from US20250145723A1 (MINGHUI PHARMACEUTICAL HANGZHOU, published 2025).

The target of assay [1] is human IGF-1R on BaF3 cells overexpressing human IGF-1R (human) (UniProt P08069). As to the kind of experiment: cell-based or functional assay.
Assay [2] has as its target T1, recombinant human IGF-1R-his (human, UniProt P08069 31-932).
T1 construct: Recombinant his-tagged protein; also called hIGF-1R-his; hIGF1R-his; not shown: his tag
As to the kind of experiment: ELISA, coated hIGF-1R-his. The protocol:
Recombinant human IGF-1R-his antigens (2 μg/mL) were added to a 96-well plate for coating overnight at 4° C. The plate was washed three times with PBST, and then was blocked with PBST containing 5% skimmed milk powder at room temperature for 2 h. The blocking solution was discarded, the plate was washed three times with PBST, and then 30 μL of nanobody-Fc fusion proteins of different concentrations were added and incubated at room temperature for 1 h. The plate was washed 3 times with PBST, horseradish peroxidase-labeled anti-human Fc antibodies (abcam, ab97225) were added at 30 μL/well and incubated at room temperature for 1 h, and the plate was washed 3 times with PBST. TMB substrate solution was added at 30 μL/well for color development in the dark for 5-30 min, 30 μL of 2 M H₂SO₄ was added to terminate the reaction, and the OD₄₅₀ was read using a microplate reader. A curve was fit and the EC₅₀ value was calculated using Graphpad Prism software.
(In an ELISA, binding on a coated surface is turned into a signal by an enzyme label.)

The target of assay [3] is T1, recombinant human IGF-1R-his. As to the kind of experiment: SPR (BIAcore), hIGF-1R-his on CM5 chip, Test 1. The protocol: The affinity of the nanobody fusion proteins to recombinant human IGF-1R was detected using a BIAcore instrument. […] The flow rate was set to 10 μL/min. The chip activation time of a mixture of EDC and NHS was the default value of 420 s. The recombinant human IGF-1R-his was coupled to 800 RU on a CM5 chip under the preset coupling mode, and unbound activated groups were blocked with ethanolamine. Two-fold serially diluted nanobody-Fc fusion proteins (five concentrations of each fusion protein were detected) were injected sequentially at a flow rate of 50 μL/min at 25° C., with an association time of 120 s and a dissociation time of 600 s. A curve was fit with a 1:1 Langmuir binding model using the BIAcore T200 analysis software to determine kinetic constants such as the association rate constant, the dissociation rate constant, and the association dissociation constant.

For assay [4] the target is unchanged. As to the kind of experiment: ELISA, coated hIGF-1R-his. The protocol: The binding activity of the nanobody-Fc fusion proteins obtained after two rounds of mutant construction with the antigen proteins (recombinant human IGF-1R-His) was detected by an ELISA method: 2 μg/mL recombinant human IGF1R-His antigen proteins were added to a 96-well ELISA plate, at 30 μL/well, for coating overnight at 4° C. The plate was washed three times with PBST. PBS containing 5% skim milk powder was added for blocking at room temperature for 2 h. The plate was washed three times with PBST. The nanobody-Fc fusion proteins were serially diluted 3-fold, and the nanobody-Fc fusion proteins of different concentrations were added to each well at 30 μL/well and incubated at room temperature for 1 h. The plate was washed three times with PBST, and horseradish peroxidase-labeled anti-human Fc antibodies were added at 30 μL/well and incubated at room temperature for 50 min. The plate was washed three times with PBST. TMB substrate solution was added at 30 μL/well for color development in the dark for 1-5 min, 30 μL of 2 M hydrochloric acid was added to terminate the reaction, and the OD₄₅₀ was read using a microplate reader. Curve fitting was conducted and the EC₅₀ value was calculated using Graphpad Prism software.
This is another data set of the same source.

For assay [5] the target is unchanged. As to the kind of experiment: competition ELISA, coated hIGF-1R-his, competitor biotinylated IGF-1-Fc. How it is done:
(§1) Recombinant human IGF-1R-his antigens (5 μg/mL) were added to a 96-well plate for coating overnight at 4° C. The plate was washed 4 times with 1×TBST, and then was blocked with 2% BSA at 37° C. for 1.5 h. The plate was washed four times with 1×TBST. A volume of 50 μL of biotinylated IGF-1-Fc (2.5 μg/mL) or IGF-2 (N-Avi & N-Fc 4 μg/mL), and 50 μL of nanobody-Fc fusion proteins of different concentrations (with a starting concentration of 10 μg/mL, 2-fold serially diluted) were added to the 96-well plate and incubated at 37° C. for 1 h. The plate was washed 4 times with 1×TBST, horseradish peroxidase-labeled Streptavidin (Thermo, 21126) was added and incubated at 37° C. for 1 h, and the plate was washed 4 times with 1×TBST. TMB substrate solution was added at 200 μL/well for color development in the dark for 20 min, 50 μL of 1 M H₂SO₄ was added to terminate the reaction, and the OD₄₅₀ was read using a microplate reader. A curve was fit and the IC₅₀ value was calculated using Graphpad Prism software.

Assay [6] has the same target. Put plainly: competition ELISA, coated hIGF-1R-his, competitor IGF-2 (N-Avi & N-Fc). The protocol: as §1

Where two headings read alike, the source gives them in different places.

T1 sequence (P08069 31-932 limits assumed): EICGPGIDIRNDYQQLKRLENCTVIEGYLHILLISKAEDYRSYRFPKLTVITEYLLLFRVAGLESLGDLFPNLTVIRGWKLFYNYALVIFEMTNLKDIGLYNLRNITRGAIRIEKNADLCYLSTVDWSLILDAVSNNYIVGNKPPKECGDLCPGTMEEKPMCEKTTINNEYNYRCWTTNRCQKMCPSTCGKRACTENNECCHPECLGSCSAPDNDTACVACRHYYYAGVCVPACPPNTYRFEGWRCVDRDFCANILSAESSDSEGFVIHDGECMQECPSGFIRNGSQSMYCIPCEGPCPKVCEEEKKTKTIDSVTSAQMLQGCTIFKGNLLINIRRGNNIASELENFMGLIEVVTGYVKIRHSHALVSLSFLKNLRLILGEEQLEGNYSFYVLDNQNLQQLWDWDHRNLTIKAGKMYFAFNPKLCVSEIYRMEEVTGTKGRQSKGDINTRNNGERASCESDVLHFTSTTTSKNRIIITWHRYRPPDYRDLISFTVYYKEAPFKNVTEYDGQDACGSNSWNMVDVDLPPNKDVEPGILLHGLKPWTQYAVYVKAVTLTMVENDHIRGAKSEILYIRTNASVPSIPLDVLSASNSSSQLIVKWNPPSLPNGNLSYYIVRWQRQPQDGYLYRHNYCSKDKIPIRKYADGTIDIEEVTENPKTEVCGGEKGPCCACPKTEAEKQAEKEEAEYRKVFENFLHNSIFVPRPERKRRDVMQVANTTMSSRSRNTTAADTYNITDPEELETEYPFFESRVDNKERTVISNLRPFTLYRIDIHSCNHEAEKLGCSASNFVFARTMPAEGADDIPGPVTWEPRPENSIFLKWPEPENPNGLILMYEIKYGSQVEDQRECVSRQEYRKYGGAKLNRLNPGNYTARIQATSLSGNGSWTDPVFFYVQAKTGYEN
human IGF-1R on BaF3 cells overexpressing human IGF-1R (human), sequence (P08069 31-1367): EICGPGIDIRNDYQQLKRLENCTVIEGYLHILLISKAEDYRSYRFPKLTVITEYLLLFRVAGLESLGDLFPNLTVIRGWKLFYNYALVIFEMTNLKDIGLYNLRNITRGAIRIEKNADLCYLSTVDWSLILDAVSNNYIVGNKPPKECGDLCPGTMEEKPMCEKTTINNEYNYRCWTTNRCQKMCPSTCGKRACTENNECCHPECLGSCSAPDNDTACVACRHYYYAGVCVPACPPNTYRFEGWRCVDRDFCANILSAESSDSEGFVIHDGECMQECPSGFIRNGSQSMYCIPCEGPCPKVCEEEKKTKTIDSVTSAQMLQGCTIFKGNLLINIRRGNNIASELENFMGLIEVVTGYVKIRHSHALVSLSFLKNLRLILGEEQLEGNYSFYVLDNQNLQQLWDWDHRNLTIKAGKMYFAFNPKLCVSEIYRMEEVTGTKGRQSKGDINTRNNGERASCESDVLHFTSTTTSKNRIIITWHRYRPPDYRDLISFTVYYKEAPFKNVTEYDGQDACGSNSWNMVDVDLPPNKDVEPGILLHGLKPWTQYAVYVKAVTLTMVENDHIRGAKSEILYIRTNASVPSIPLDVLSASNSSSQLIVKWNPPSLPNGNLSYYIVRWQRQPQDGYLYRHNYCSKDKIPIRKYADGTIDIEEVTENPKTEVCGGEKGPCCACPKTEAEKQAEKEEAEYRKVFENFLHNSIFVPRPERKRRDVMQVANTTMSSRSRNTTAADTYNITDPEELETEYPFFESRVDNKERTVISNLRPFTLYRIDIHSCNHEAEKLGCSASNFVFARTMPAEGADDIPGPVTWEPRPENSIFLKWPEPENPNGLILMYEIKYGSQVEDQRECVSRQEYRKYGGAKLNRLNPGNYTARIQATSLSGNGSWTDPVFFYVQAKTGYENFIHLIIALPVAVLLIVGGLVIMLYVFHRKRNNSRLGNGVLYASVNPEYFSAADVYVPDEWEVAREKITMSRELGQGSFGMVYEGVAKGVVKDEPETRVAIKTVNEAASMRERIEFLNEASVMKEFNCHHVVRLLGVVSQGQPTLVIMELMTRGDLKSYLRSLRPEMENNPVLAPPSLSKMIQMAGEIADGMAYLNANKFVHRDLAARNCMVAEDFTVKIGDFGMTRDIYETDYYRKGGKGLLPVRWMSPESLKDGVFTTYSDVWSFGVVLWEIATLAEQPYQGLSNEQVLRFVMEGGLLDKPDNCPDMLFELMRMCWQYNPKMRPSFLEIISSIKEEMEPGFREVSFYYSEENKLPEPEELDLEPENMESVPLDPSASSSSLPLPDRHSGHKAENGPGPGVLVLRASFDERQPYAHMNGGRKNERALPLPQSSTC

The molecule Teprotumumab (antibody) registered an IC50, inhibition of IGF-1-induced proliferation of BaF3 cells overexpressing human IGF-1R in assay [1] of 121 ng/mL.

B1: 5115-H1-Fc (Fc fusion)
chain: EVQLVESGGGLVQPGGSLRLSCAASGRTFSSFVMSWFRQAPGKEREFVSAISGSGSRAYYADSVKGRFTISRDNSKNTLYLQMNSLRAEDTAVYYCAANPRRATPDYTQYAYWGQGTLVTVSS
notes: Humanized VHH-Fc; Fc not specified; not shown: Fc
Consider B1, for which, in assay [2], the EC50 stood at 36.9 ng/mL. For the same molecule, in assay [3], the dissociation constant (Kd) amounted to 31.7 nM, the koff was determined as 0.00211 s⁻¹ and the on-rate constant (kon) is 66800 M⁻¹ s⁻¹.

B2: 5115-H4-M34-12-Fc (Fc fusion)
chain: EVQLVESGGGLVQPGGSLRLSCAASGRPFSSFVMAWFRQAPGKGLEFVSAISGSGSRARYADSVKGRFTISRDNSKNTLYLQMNSLRAEDTAVYYCAANPRYATPDLTQYAYWGQGTLVTVSS
notes: VHH-Fc; Fc not specified; not shown: Fc
In the case of B2, the concentration for a half-maximal effect (EC50) in assay [4] was 3.33 ng/mL.

B3: 5115-H4-M34-11-Fc (Fc fusion)
chain: EVQLVESGGGLVQPGGSLRLSCAASTRTFSSFVMAWFRQAPGKGLEFVSAISGSGSRARYADSVKGRFTISRDNSKNTLYLQMNSLRAEDTAVYYCAANPRRATPDLTQYAYWGQGTLVTVSS
notes: as for B2
For the molecule B3, the half-maximal effective concentration (EC50) in assay [4] amounted to 2.33 ng/mL.

B4: 5115-H4-M34-16-Fc (Fc fusion)
chain: EVQLVESGGGLVQPGGSLRLSCAASGRTFSSFVMGWFRQAPGKGLEFVSAISGFGSRARYADSVKGRFTISRDNSKNTLYLQMNSLRAEDTAVYYCAANPRRATPDLTQYAYWGQGTLVTVSS
notes: as for B2
With B4, the EC50 in assay [4] is 2.4 ng/mL.

B5: 5115-H4-M34-7-Fc (Fc fusion)
chain: EVQLVESGGGLVQPGGSLRLSCAASGRTFSSFVMAWFRQAPGKGLEFVSAISGSGRQARYADSVKGRFTISRDNSKNTLYLQMNSLRAEDTAVYYCAANPRRATPDLSRYAYWGQGTLVTVSS
notes: as for B2
Regarding B5, in assay [4], the concentration for a half-maximal effect (EC50) came out at 5.36 ng/mL.

B6: 5115-H4-M41-Fc (Fc fusion)
chain: EVQLVESGGGLVQPGGSLRLSCAASGRTFSSFVMGWFRQAPGKGLEFVSAISGSGSRARYADSVKGRFTISRDNSKNTLYLQMNSLRAEDTAVYYCAANPRRATPDYTQYLYWGQGTLVTVSS
notes: as for B2
As to B6, the EC50 in assay [4] was 0.175 nM.

B7: 5115-H4-M52-Fc (Fc fusion)
chain: EVQLVESGGGLVQPGGSLRLSCAASSRTFSSFVMSWFRQAPGKGLEFVSAISGSGSRANYADSVKGRFTISRDNSKNTLYLQMNSLRAEDTAVYYCAANPRRATPDLTQYAYWGQGTLVTVSS
notes: as for B2
For the molecule B7, the EC50 in assay [4] was found to be 0.183 nM.

B8: 5115-H1-M3-Fc (Fc fusion)
chain: EVQLVESGGGLVQPGGSLRLSCAASGRTFSSFVMSWFRQAPGKEREFVSAISGSGSRARYADSVKGRFTISRDNSKNTLYLQMNSLRAEDTAVYYCAANPRRATPDLTQYAYWGQGTLVTVSS
notes: as for B2
Consider B8, for which, in assay [3], the dissociation constant Kd turned out to be 1.85 nM, the koff is 0.00207 s⁻¹ and the kon was 1.12e+06 M⁻¹ s⁻¹. Further, the EC50 in assay [4] was determined as 1.22 ng/mL.

B9: 5115-H4-M34-15-Fc (Fc fusion)
chain: EVQLVESGGGLVQPGGSLRLSCAASGRTFSSLVMAWFRQAPGKGLEFVSAISGSGSRARYADSVKGRFTISRDNSKNTLYLQMNSLRAEDTAVYYCAANPRRATPDLTQYAYWGQGTLVTVSS
notes: as for B2
Take B9: the 50% effective concentration (EC50) in assay [4] was 2.25 ng/mL.

B10: 5115-H1-M10-Fc (Fc fusion)
chain: EVQLVESGGGLVQPGGSLRLSCAASGGTFSSFVMSWFRQAPGKEREFVSAISGSGSRAYYADSVKGRFTISRDNSKNTLYLQMNSLRAEDTAVYYCAANPRRATPGFTQYAYWGQGTLVTVSS
notes: as for B2
On to B10, for which, in assay [3], the dissociation constant Kd was found to be 1.15 nM, the koff was 0.00123 s⁻¹ and the on-rate constant (kon) was 1.07e+06 M⁻¹ s⁻¹. Moreover, in assay [4], the concentration giving a half-maximal response (EC50) amounted to 1.7 ng/mL.

B11: 5115-H4-M39-Fc (Fc fusion)
chain: EVQLVESGGGLVQPGGSLRLSCAASGRTFSSFVMSWFRQAPGKGLEFVSAISGSGSRSRYADSVKGRFTISRDNSKNTLYLQMNSLRAEDTAVYYCAANPRRATPDLRQYAYWGQGTLVTVSS
notes: as for B2
For B11, in assay [4], the EC50 came to 0.21 nM.

B12: 5115-H4-M34-8-Fc (Fc fusion)
chain: EVQLVESGGGLVQPGGSLRLSCAASGRTFSTFVMAWFRQAPGKGLEFVSAISGSGSRSRYADSVKGRFTISRDNSKNTLYLQMNSLRAEDTAVYYCAANPRRATPDLTQYAYWGQGTLVTVSS
notes: as for B2
In the case of B12, the EC50 in assay [4] stood at 3.79 ng/mL.

B13: 5115-H3-Fc (Fc fusion)
chain: EVQLVESGGGLVQPGGSLRLSCAASGRTFSSFVMSWFRQAPGKELEFVSAISGSGSRAYYADSVKGRFTISRDNSKNTLYLQMNSLRAEDTAVYYCAANPRRATPDYTQYAYWGQGTLVTVSS
notes: as for B1
On to B13, for which, in assay [2], the EC50 turned out to be 92.5 ng/mL.

B14: 5115-H1-M17-Fc (Fc fusion)
chain: EVQLVESGGGLVQPGGSLRLSCAASGRTFSSFVMSWFRQAPGKEREFVSAISGSGSRSRYADSVKGRFTISRDNSKNTLYLQMNSLRAEDTAVYYCAANPRRATPDLIQYAYWGQGTLVTVSS
notes: as for B2
As for B14, in assay [3], the Kd turned out to be 0.101 nM, the koff came out at 0.000465 s⁻¹ and the on-rate (kon) was found to be 4.62e+06 M⁻¹ s⁻¹. Also, in assay [4], the half-maximal effective concentration (EC50) is 1.84 ng/mL.

B15: 5115-H2-Fc (Fc fusion)
chain: EVQLVESGGGLVQPGGSLRLSCAASGRTFSSFVMSWFRQAPGKGREFVSAISGSGSRAYYADSVKGRFTISRDNSKNTLYLQMNSLRAEDTAVYYCAANPRRATPDYTQYAYWGQGTLVTVSS
notes: as for B1
As for B15, the EC50 in assay [2] stood at 65.2 ng/mL.

B16: 5115-H4-M34-14-Fc (Fc fusion)
chain: EVQLVESGGGLVQPGGSLRLSCAASRGTFSSFVMAWFRQAPGKGLEFVSAISGSGKVARYADSVKGRFTISRDNSKNTLYLQMNSLRAEDTAVYYCAANPRRATPDLTQYAYWGQGTLVTVSS
notes: as for B2
For B16, in assay [4], the 50% effective concentration (EC50) was determined as 3.28 ng/mL.

B17: 5115-H4-M48-Fc (Fc fusion)
chain: EVQLVESGGGLVQPGDSLRLSCAASGRTFSRFVMSWFRQAPGKGLEFVSAISGSGSRAYYADSVKGRFTISRDNSKNTLYLQMNSLRAEDTAVYYCAANPRRATPDLRQYAYWGQGTLVTVSS
notes: as for B2
As for B17, the EC50 in assay [4] was found to be 0.475 nM.

B18: 5115-H4-Fc (Fc fusion)
chain: EVQLVESGGGLVQPGGSLRLSCAASGRTFSSFVMSWFRQAPGKGLEFVSAISGSGSRAYYADSVKGRFTISRDNSKNTLYLQMNSLRAEDTAVYYCAANPRRATPDYTQYAYWGQGTLVTVSS
notes: as for B1
For B18, in assay [2], the concentration giving a half-maximal response (EC50) came out at 82.8 ng/mL. For the same molecule, the values for the 50% inhibitory concentration (IC50) in assay [5] and in assay [6] were 227 ng/mL and 152 ng/mL, respectively.

B19: 5115-H6-Fc (Fc fusion)
chain: EVQLVESGGGLVQPGGSLRLSCAASGRTFSSFVMMWFRQAPGKEREFVSAISGSGSRAYYADSVKGRFTISRDNSKNTLYLQMNSLRAEDTAVYYCAANPRRATPDYTQYAYWGQGTLVTVSS
notes: as for B1
On to B19, for which the EC50 in assay [2] stood at 92.9 ng/mL.

B20: 5115-H4-M34-9-Fc (Fc fusion)
chain: EVQLVESGGGLVQPGGSLRLSCAASGPAFSSFVMAWFRQAPGKGLEFVSAISGSGSRARYADSVKGRFTISRDNSKNTLYLQMNSLRAEDTAVYYCAANPRRATPDLTQYAYWGQGTLVTVSS
notes: as for B2
As for B20, the half-maximal effective concentration (EC50) in assay [4] came to 4.05 ng/mL.

For orientation: EC50 means the concentration giving half of the maximal effect. As a reminder, the Kd is the free concentration of one partner at which half of the binding sites on the other are occupied at equilibrium, for simple one-to-one binding. A word on the koff: it is a measure of how fast the partners let go of each other. For orientation: kon means the second-order rate constant of association. As usually defined, the IC50 is the concentration that gives 50% inhibition.
